According to patent US20060062793A1, “Modified antibodies to prostate-specific membrane antigen and uses thereof” (priority 2004, published 2006):

Columns and labels:
[1] = tested on: vascular endothelium of solid tumors; experiment: Phase I trial of 111In-DOTA-deJ591 in refractory non-prostate solid tumors; assay type: in vivo, human
Excerpt: Eligible patients were those with refractory solid tumor malignancies whose tumor types are known to express PSMA on the neovasculature.
Patients the participated in the study included eight renal cell cancer patients, four bladder cancer patients, two colon cancer patients, and one pancreas cancer patient.

[2] = Pharmacokinetics of deJ591 and deJ591-DM1 in cynomolgus monkeys; assay type: in vivo; conditions: Monkey, male & female
[3] = tested on: recurrent, progressing prostate cancer; experiment: Phase I trial of four weekly doses of 111In-DOTA-deJ591; parameters: species or system human; conditions: human, in vivo
Protocol: Patients with recurrent, progressing prostate cancer received four weekly doses of ^111In-DOTA-deJ591. Doses were escalated in cohorts of three patients and ranged from 62.5-500 mg/m2 (total). […] After the first dose, patients were imaged on the day of injection (day 0) and days 1, 2, 4 and 7.
Serum PK, immune reaction and toxicity were evaluated after each dose for a minimum of 12 weeks.

[4] = tested on: PSMA-positive human LNCaP tumors; experiment: Biodistribution of 111In labeled MAbs in nude mice bearing LNCaP tumors; assay type: in vivo, mouse
Protocol: Prior to use, the cells were trypsinized, counted and suspended in Matrigel (Collaborative Biomedical Products, Bedford, Mass.). Nu/Nu Balb C mice 8-10 weeks of age were inoculated, in the right and left flanks, with a suspension of 5×10^6 LNCaP cells in Matrigel (BD Biosciences, Bedford Mass.). After a period of 14-18 days, tumors (100-300 mg) had developed. The PSMA-negative DU145 and PC3 cells were implanted in nude mice in an identical manner.
The PSMA-positive and PSMA-negative tumor bearing mice were injected, via the tail vein, with 80 KBq of the iodinated MAb (400 MBq/mg) in 200 μL of PBS (pH 7.4, 0.2% BSA). Groups of animals (3-8/group) were sacrificed after 2, 4 or 6 days. The major organs and tumors were recovered. The tissue samples were weighed and counted, with appropriate standards in an automatic NaI(Tl) counter. These measured relative activity data (cpm) were background corrected and expressed as a percentage of the injected dose per gram (% ID/g). […] J415, J591 and 7E11 were labeled with ^111In (100 MBq/mg). 80 KBq of the ^111In labeled MAbs were injected in groups of animals. The % ID/g in various organs and tumor tissues was determined at 2-6 days post injection in a similar way as described for ^131I labeled MAbs.

prostate cancer = conditions: after each radiolabeled dose over five months
Excerpt: Dose twelve was radiolabeled with a therapeutic quantity of ^90Yttrium (19 mCi) calculated to deliver less than a 150 rad dose to the blood.

[5] = tested on: hormone-refractory prostate cancer metastases; experiment: Nuclear imaging with 111In or 177Lu labeled deJ591 versus standard imaging; assay type: in vivo, human
Protocol: The antibody scans were compared to standard imaging studies (bone, CT or MR scans) obtained on each patient to assess the underlying sensitivity, specificity, and accuracy of deJ591 targeting to metastatic sites. Bony and soft tissue metastases were evaluated independently.

[6] = tested on: androgen-independent PSMA-positive 22RV1 xenograft; experiment: deJ591-DM1 efficacy in castrate or intact scid mice bearing 22RV1 xenograft; assay type: in vivo, mouse
Protocol: Prostate tumors can be broadly classified as either androgen-dependent or androgen-independent. […] The 22RV1 cell line was originally developed as androgen-independent and can be grown as a xenograft in C.B-17 scid mice that have been left either intact or castrated. […] This was approximately twice the time required for the tumors of intact mice to reach 1000 mm^3 (9.3 days). C.B-17 scid mice bearing CWR22 xenografts approximately 200 mm^3 in size received IV injections (200 μL constant volume) of the test articles according to the dosage and schedule shown in the Table 24.

CD-1 mice = experiment: Single IV administration toxicity of deJ591-DM1 and DM1 in CD-1 mice; assay type: in vivo, mouse
LNCaP tumor xenografts = experiment: Murine J591-DM1 immunoconjugate in BALB/c mice with LNCaP xenografts; assay type: in vivo, mouse; conditions: unconjugated, equimolar, intraperitoneal qday x 5 days
Protocol: Tumor xenografts of LNCaP cells were established in the right flank of BALB/c mice (5×10^6 cells injected subcutaneously). Animals were observed until tumors were visible (7-10 mm). Animals were then treated with PBS, unconjugated mAb J591, unconjugated DM1, both mAb J591 and DM1 but unconjugated, and J591-DM1 immunoconjugate (100, 200, 300, and 400 mcg/day intraperitoneal qday×5 days). The mAb J591 was modified to introduce dithiopyridyl groups and then conjugated to DM1 via a hindered disulfide bond, as described above. Unconjugated mAb J591 and DM1 were given in equimolar concentrations.
Tumor xenografts of both LNCaP cells (5×10^6 cells injected subcutaneously in the right flank) and PC3 cells (3×10^6 cells injected subcutaneously in the left flank) were established in BALB/c mice. Animals were observed until LNCaP tumors were visible (PC3 tumors were present but much smaller). Animals treated with J591-DM1 immunoconjugate: 300 mcg/day intraperitoneal qday×5 days
Tumor xenografts of LNCaP cells were established subcutaneously in the right flank of BALB/c mice. […]
All animals were photographed pre- and post-treatment and tagged for identification. Tumor volume was determined (length×width×depth) and closely followed. […]

Compound | Liver uptake ([1]; 5 mg) | Plasma clearance (T1/2) ([1]; 5 mg) [h] | Liver uptake ([1]; 10 mg) | Plasma clearance (T1/2) ([1]; 10 mg) [h] | Liver uptake ([1]; 20 mg) | Plasma clearance (T1/2) ([1]; 20 mg) [h] | Total deJ591 AUC ([2]; 6 mg/kg (72 mg/m^2), study KLA W-171) [µg·h/mL] | Total deJ591 AUC ([2]; 10 mg/kg (120 mg/m^2), study CTBR 57355) [µg·h/mL] | plasma half-life [3] | tumor uptake over time [4] | tumor localization to known tumor sites (prostate cancer) | negative mAb scans in patients without documented soft tissue metastases ([5]; fifteen patients) [%] | specificity, bone ([5]; seven patients with negative bone scans) [%] | Relative TGD ([6]; Castrate mice, 240 μg/kg DM1-equivalents, q3dX5) | change in growth delay for castrate mice relative to androgen-intact mice ([6]; q3dx5) [fold] | toxicity compared with deJ591-DM1 at equimolar dosages (CD-1 mice) | mortality (LNCaP tumor xenografts)
deJ591 | 28%±14% | 21 ± 11 | 17%±7% | 24 ± 6 | 13%±5% | 37 ± 8 | 25200 | 49400 | varied with dose | gradually increased with time and is quite similar to that of 7E11 | excellent | 100 | 100 |  |  |  | 
COc1cc2cc(c1Cl)N(C)C(=O)C[C@H](OC(=O)[C@H](C)N(C)C(=O)CCS)[C@]1(C)O[C@H]1[C@H](C)[C@@H]1C[C@@](O)(NC(=O)O1)[C@H](OC)/C=C/C=C(\C)C2 [DM1, reference compound] |  |  |  |  |  |  |  |  |  |  |  |  |  | 1.4 | 1.4 | tended to be less toxic than deJ591-DM1 at lower dosages | died within 48 hours of treatment completion
